Seven molecules from US20220348651A1, “ENTPD2 ANTIBODIES, COMBINATION THERAPIES, AND METHODS OF USING THE ANTIBODIES AND COMBINATION THERAPIES” (Novartis AG, priority 2019, published 2022) can be followed below.

Assay [1] has as its system cynomologus (cyno) ENTPD2. The assay is described as follows: Biacore (SPR) affinity to cyno ENTPD2 ECD. It is filed as binding, cynomolgus monkey. Particulars: 25° C. The method, then:
(§1) Biacore Screening: Affinity was measured by determining the kinetic rate constants using surface plasmon resonance (SPR) on a Biacore T200 or T100 with the T200 sensitivity upgrade instrument (Biacore, GE Healthcare). Antibodies were captured on CM5 sensor chips (Biacore, GE Healthcare) prepared with a mouse anti-human IgG Fc antibody (ThermoFisher catalogue #05-4200) amine coupled to the surface. […] ENTPD2 analytes were allowed to associate for 180 s and dissociate for up to 1800 s depending on the off-rate of the antibody at a flow rate of 30 μL/min. The running buffer was PBS pH 7.2 (prepared from a Corning 10X stock, cat#46-013-CM)+0.05% Tween 20. Regeneration was accomplished with 30 s injections of 3 or 4 M MgCl2 to remove all the captured antibody and remaining complex from the surface, after which fresh antibody was captured. The raw data were analyzed using Biacore T200 Evaluation Software version 1.0 and fit to a 1:1 binding model, with all parameters set to fit globally except for RI, which was set to fit locally.
(SPR reads the build-up and loss of mass on a sensor chip optically.)

Assay [2] addresses T1, human ENTPD2 (Homo sapiens, UniProt Q9Y5L3).
T1 construct: residues 29-462 of human or cyno ENTPD2 were cloned into expression vector; GP67 signal peptide (N); made in house; host or cells: High Five (Trichoplusia ni) insect cells, baculovirus
T1 sequence (Q9Y5L3 29-462): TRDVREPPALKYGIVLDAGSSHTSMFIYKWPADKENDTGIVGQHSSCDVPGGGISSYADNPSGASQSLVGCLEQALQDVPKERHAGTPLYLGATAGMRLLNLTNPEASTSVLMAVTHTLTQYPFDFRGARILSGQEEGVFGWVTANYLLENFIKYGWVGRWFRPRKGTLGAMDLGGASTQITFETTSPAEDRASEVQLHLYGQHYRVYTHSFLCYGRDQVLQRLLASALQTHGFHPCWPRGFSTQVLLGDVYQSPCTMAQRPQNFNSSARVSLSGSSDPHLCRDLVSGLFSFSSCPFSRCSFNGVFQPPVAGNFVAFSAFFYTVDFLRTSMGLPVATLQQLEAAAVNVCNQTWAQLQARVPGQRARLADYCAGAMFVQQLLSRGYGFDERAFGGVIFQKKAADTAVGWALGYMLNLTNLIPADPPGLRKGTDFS
The assay is described as follows: Biacore (SPR) affinity to human ENTPD2 ECD. It is filed as binding. Particulars: 25° C. Here is the method:
as §1

Assay [3] deals with T2, mouse ENTPD2 (Mus musculus, UniProt O55026).
T2 construct: residues 29-462 of mouse or rat ENTPD2 (the extracellular domain); mouse IgK signal peptide (N); His6; made in house; host or cells: FreeStyle 293-F cells, transient transfection
T2 sequence (O55026 29-462): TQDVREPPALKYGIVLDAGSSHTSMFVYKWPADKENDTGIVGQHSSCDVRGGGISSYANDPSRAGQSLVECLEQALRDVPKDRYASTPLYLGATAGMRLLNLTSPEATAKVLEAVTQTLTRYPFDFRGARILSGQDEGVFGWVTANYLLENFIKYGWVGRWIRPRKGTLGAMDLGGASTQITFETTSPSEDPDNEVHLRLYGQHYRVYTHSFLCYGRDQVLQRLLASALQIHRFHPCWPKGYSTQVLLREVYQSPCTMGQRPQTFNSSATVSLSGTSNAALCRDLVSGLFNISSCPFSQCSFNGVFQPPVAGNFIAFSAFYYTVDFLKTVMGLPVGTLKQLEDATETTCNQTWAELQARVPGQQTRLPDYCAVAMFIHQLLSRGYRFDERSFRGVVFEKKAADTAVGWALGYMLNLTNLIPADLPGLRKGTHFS
Description: Antibody specificity: binding to mouse ENTPD2. The note with it: for BIACore KD: Mouse ENTPD2. From the text:
Antibody specificity for mAbl-mAblO was confirmed. […] Antibodies mAb8, mAb9, and mAb10 show weak affinity to mouse ENTPD2. None of the selected antibodies bind to rat ENTPD2.

The Kd is the concentration at which binding is half-saturated. Low values mean a tighter complex, high ones a looser complex.

Sequence of cynomologus (cyno) ENTPD2 (as listed by the source): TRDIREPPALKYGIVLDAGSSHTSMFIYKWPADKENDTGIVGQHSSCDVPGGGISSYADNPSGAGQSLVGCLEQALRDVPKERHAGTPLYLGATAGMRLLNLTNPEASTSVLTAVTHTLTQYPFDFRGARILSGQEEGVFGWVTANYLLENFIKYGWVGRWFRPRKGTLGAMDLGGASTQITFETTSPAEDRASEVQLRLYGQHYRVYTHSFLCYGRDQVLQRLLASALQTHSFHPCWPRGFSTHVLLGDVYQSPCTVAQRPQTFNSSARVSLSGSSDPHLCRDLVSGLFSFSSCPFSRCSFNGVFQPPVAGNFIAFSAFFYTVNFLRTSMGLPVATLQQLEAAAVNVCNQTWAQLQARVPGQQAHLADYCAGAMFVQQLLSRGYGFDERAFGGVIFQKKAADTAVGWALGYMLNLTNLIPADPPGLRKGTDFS

B1: mAb9: anti-human ENTPD2 antibody of Table 1; VH SEQ ID NO: 115, VL SEQ ID NO: 125 (antibody, V domains shown)
VH: QVQLVQSGAEVKKPGSSVKVSCKASGGTFDSYAVSWVRQAPGQGLEWMGRIVPWLGHTQYAQKFQGRVTITADESTSTAYMELSSLRSEDTAVYYCARESPGYRYSFDVWDQGTLVTVSS
VL: SYELTQPLSVSVALGQTARITCSGDAIGEKYVYWYQQKPGQAPVLVIYDDNNRPSGIPERFSGSNSGNTATLTISRAQAGDEADYYCASYDLQQARWVFGGGTKLTVL
On to B1, for which, in assay [1], the ka was 990000 M⁻¹ s⁻¹ and the kd amounted to 0.021 s⁻¹. In assay [2], this molecule yielded a ka of 380000 M⁻¹ s⁻¹ and a kd of 0.0003 s⁻¹. For the same molecule, in assay [3], the “affinity / cross-reactivity to mouse ENTPD2” value (shortened to “affinity / cross-reactivity”) is recorded as “weak affinity”.

B2: mAb10: anti-human ENTPD2 antibody of Table 1; VH SEQ ID NO: 132, VL SEQ ID NO: 125 (antibody, V domains shown)
VH: QVQLVQSGAEVKKPGSSVKVSCKASGGTFDSYAVSWVRQAPGQGLEWMGRIVPWLGFTRYAQKFQGRVTITADESTSTAYMELSSLRSEDTAVYYCARESPGYRYSFDVWDQGTLVTVSS
VL: SYELTQPLSVSVALGQTARITCSGDAIGEKYVYWYQQKPGQAPVLVIYDDNNRPSGIPERFSGSNSGNTATLTISRAQAGDEADYYCASYDLQQARWVFGGGTKLTVL
Consider B2, for which, in assay [1], the ka was determined as 1.2e+06 M⁻¹ s⁻¹ and the kd worked out at 0.018 s⁻¹. In assay [2], this molecule showed a ka of 340000 M⁻¹ s⁻¹ and a kd of 0.00024 s⁻¹. For the same molecule, in assay [3], the “affinity / cross-reactivity” value is reported as “weak affinity” and the “BIACore KD” value is “Weak binding”.

B3: mAb4: humanized anti-human ENTPD2 antibody from mAb16; VH SEQ ID NO: 46, VL SEQ ID NO: 57 (antibody, V domains shown)
VH: QIQLQESGPGLVKPSQTLSLTCTVSGYSITSGYYWNWIRQHPGKGLEWIGYISYDADNNYNPSLKNRVTISRDTSKNQFSLKLSSVTAADTAVYYCAGGYYRYGLGSYRGSYYYVMDYWGQGTTVTVSS
VL: ETVLTQSPATLSVSPGERATISCKASQSVDYEGHSYMNWYQQKPGQAPRLLIYAASNLESGIPARFSGSGSGTDFTLTISSVEPEDAATYYCQQSNEDPPTFGGGTKLEIK
In assay [1], B3 had a ka of 140000 M⁻¹ s⁻¹ and a kd of 0.0057 s⁻¹. In assay [2], this molecule had a ka of 300000 M⁻¹ s⁻¹ and a kd of 0.00022 s⁻¹. Also, the “BIACore KD” value in assay [3] is “No binding”.

B4: mAb5: humanized anti-human ENTPD2 antibody from mAb16; VH SEQ ID NO: 46, VL SEQ ID NO: 64 (antibody, V domains shown)
VH: QIQLQESGPGLVKPSQTLSLTCTVSGYSITSGYYWNWIRQHPGKGLEWIGYISYDADNNYNPSLKNRVTISRDTSKNQFSLKLSSVTAADTAVYYCAGGYYRYGLGSYRGSYYYVMDYWGQGTTVTVSS
VL: ETVLTQSPATLSVSPGERATISCKASQSVDYDGNSYMNWYQQKPGQAPRLLIYAASNLESGIPARFSGSGSGTDFTLTISSVEPEDAATYYCQQSNEDPPTFGGGTKLEIK
In assay [1], B4 yielded a ka of 290000 M⁻¹ s⁻¹ and a kd of 0.003 s⁻¹. In assay [2], this molecule showed a ka of 270000 M⁻¹ s⁻¹ and a kd of 0.00016 s⁻¹. In assay [3], the “BIACore KD” value is recorded as “No binding”.

B5: mAb8: anti-human ENTPD2 antibody of Table 1; VH SEQ ID NO: 91, VL SEQ ID NO: 102 (antibody, V domains shown)
VH: QVQLQQSGPGLVKPSQTLSLTCAISGDSVSSSSAAWNWIRQSPSRGLEWLGRIYYRSKWYNDYAVSVKSRITINPDTSKNQFSLQLNSVTPEDTAVYYCARGSYVTSSYEGFDYWGQGTLVTVSS
VL: SYELTQPLSVSVALGQTARITCSGDNLPEKYAYWYQQKPGQAPVLVIYDDNKRPSGIPERFSGSNSGNTATLTISRAQAGDEADYYCQSYGKWGWTWVFGGGTKLTVL
In assay [1], B5 returned a ka of 300000 M⁻¹ s⁻¹ and a kd of 0.024 s⁻¹. In assay [2], this molecule gave a ka of 290000 M⁻¹ s⁻¹ and a kd of 0.00094 s⁻¹. Further, in assay [3], the “affinity / cross-reactivity” value is recorded as “weak affinity” and the “BIACore KD” value is listed as “Weak binding”.

B6: mAb3: humanized anti-human ENTPD2 antibody from mAb17; VH SEQ ID NO: 33, VL SEQ ID NO: 29 (antibody, V domains shown)
VH: QVQLVQSGAEVVKPGASVKISCKASGYTFTDYNMDWVKQAPGQRLEWIGDINPKYDISTYNQQFKGKATITVDTSASTAYMELSSLRSEDTAVYYCARRGFFLYYGINYYYFDVWGQGTLVTVSS
VL: EIVLTQSPATLSASPGERITLSCSASSSVSYIHWYQQKPGQAPRLLIYSTSNLASGIPARFSGSGSGTFYTLTISSVEPEDAAVYYCHQWSSYPWTFGGGTKLEIK
For B6, the ka in assay [1] was 450000 M⁻¹ s⁻¹; in assay [2] it was 130000 M⁻¹ s⁻¹. In addition, the kd in assay [1] came out at 0.00098 s⁻¹; in assay [2] it was 0.00016 s⁻¹. Moreover, the “BIACore KD” value in assay [3] is listed as “No binding”.

B7: mAb2: humanized anti-human ENTPD2 antibody from mAb17; VH SEQ ID NO: 25, VL SEQ ID NO: 29 (antibody, V domains shown)
VH: QVQLVQSGAEVVKPGASVKISCKASGYTFTDYNMDWVKQAPGQRLEWIGDINPKYDISTYNQQFKGKATITVDKSASTAYMELSSLRSEDTAVYYCARRGFFLYYGINYYYFDVWGQGTLVTVSS
VL: EIVLTQSPATLSASPGERITLSCSASSSVSYIHWYQQKPGQAPRLLIYSTSNLASGIPARFSGSGSGTFYTLTISSVEPEDAAVYYCHQWSSYPWTFGGGTKLEIK
With B7, in assay [1], the Kd stood at 2.8 nM, the ka is 430000 M⁻¹ s⁻¹ and the kd turned out to be 0.0012 s⁻¹. In assay [2], this molecule came in with a Kd of 1.7 nM, a ka of 110000 M⁻¹ s⁻¹ and a kd of 0.00018 s⁻¹. Besides, the “BIACore KD” value in assay [3] was “No binding”.
